Reference: article PMC5830440

Target: BG505 SOSIP.664 Env trimer (HIV-1 (BG505))
Assay: BLI; biotinylated BG505 SOSIP.664 trimer (10 µg/mL) captured on Streptavidin biosensors; ScFv in 2-fold dilution series starting at 500 nM; 1:1 binding model, global fit; KD = koff/kon

VRC01 ScFv (parental ScFv)
Kd: < 1 pM | koff: < 1e-07 s⁻¹
